Test results reported in PMC6445127, “WNT5A is transported via lipoprotein particles in the cerebrospinal fluid to regulate hindbrain morphogenesis” (Nature Communications, 2019).

Target: T1, human native APOJ (human, UniProt P10909 23-227; P10909 228-449)
T1 construct: Apolipoprotein J (Clusterin), human, native; also called isolated APOJ protein; Clusterin; source: bought: Biovendor (RD162034025)
Assay: co-IP; in vitro protein binding assay: 2 μg human native APOJ incubated with 150 ng recombinant WNT5A in 200 μl binding buffer (50 mM Tris pH 7.6, 100 mM NaCl, 1 mM EDTA) overnight at 4 °C; precipitated with corresponding antibody or IgG on DynaBeads; washes with 0.5% NP40
Settings: both partners purified

T1 sequence (P10909 23-227, chain 1 of 2): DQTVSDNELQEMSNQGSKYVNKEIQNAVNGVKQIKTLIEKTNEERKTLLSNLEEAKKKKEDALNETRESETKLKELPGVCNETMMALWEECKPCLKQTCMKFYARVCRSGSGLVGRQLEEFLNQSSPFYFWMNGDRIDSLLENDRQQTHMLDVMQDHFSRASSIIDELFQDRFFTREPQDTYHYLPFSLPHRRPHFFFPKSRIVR
T1 sequence (P10909 228-449, chain 2 of 2): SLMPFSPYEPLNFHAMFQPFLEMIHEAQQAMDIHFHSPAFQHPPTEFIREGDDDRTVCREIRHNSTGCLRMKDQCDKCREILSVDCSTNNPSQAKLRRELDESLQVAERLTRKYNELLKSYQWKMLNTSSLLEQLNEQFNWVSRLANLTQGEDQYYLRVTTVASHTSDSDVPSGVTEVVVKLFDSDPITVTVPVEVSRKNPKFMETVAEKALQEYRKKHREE

binding result: binds
B1: recombinant WNT5A (ligand, UniProt P22725 62-380, looked up)
chain: IIGAQPLCSQLAGLSQGQKKLCHLYQDHMQYIGEGAKTGIKECQYQFRHRRWNCSTVDNTSVFGRVMQIGSRETAFTYAVSAAGVVNAMSRACREGELSTCGCSRAARPKDLPRDWLWGGCGDNIDYGYRFAKEFVDARERERIHAKGSYESARILMNLHNNEAGRRTVYNLADVACKCHGVSGSCSLKTCWLQLADFRKVGDALKEKYDSAAAMRLNSRGKLVQVNSRFNSPTTQDLVYIDPSPDYCVRNESTGSLGTQGRLCNKTSEGMDGCELMCCGRGYDQFKTVQTERCHCKFHWCCYVKCKKCTEIVDQFVCK
notes: recombinant WNT5A, R&D Systems; 'P22725' is printed where a catalogue number would stand; elsewhere the catalogue number 645-WN-010 is printed; WNT5A'; also called rcWNT5A; rcWnt5a; source: bought: R&D Systems
